Measured values published in patent US20180030136A1 (GlaxoSmithKline, published 2018).

T1: human ICOS on cells (human, UniProt Q9Y6W8 21-167)
T1 sequence: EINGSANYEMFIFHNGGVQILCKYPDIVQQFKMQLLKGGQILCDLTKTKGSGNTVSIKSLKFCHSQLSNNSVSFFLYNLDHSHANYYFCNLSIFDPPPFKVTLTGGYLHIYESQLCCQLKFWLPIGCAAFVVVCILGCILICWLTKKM


Experiments:
human ICOS on cells = target: T1, human ICOS on cells; assay: cell-based or functional assay
Cyno ICOS-Fc = target: T2, Cyno ICOS-Fc (cynomolgus; rabbit); assay: BIAcore T200, antibody captured on anti-human IgG, ICOS (rabbit Fc) as analyte, 25 C, 1:1 model
T2 construct: also called cyno ICOS (rabbit Fc)
Description: The binding kinetics affinity of the humanized H2L5 hIgG4PE antibody was determined used the BIAcore T200Anti-human IgG on Fc2 of a CM5 chip Anti-ICOS H2L5 hIgG4PE captured on the surface. Anti-human IgG surface blocked with 0.1 mg/mL hIgG1 control to prevent non-specific binding of rabbit Fc. Human and cyno ICOS (rabbit Fc) passed over the captured antibodies at 256 nM, 64 nM, 16 nM, 4 nM and 1 nM. Buffer alone was used to double reference binding curves. MgCl₂ was used to regenerate surface. Run carried out at 25° C. Data fitted to 1:1 model using T200 evaluation software. Antibody concentration: 2.5 μg/mL
The ICOS binding data was fitted to a 1:1 kinetics model using the T200 data analysis software.

cynomolgus ICOS = target: T3, cynomolgus ICOS (cynomolgus); assay: Biacore, cyno ICOS
T3 construct: also called cyno ICOS; Biacore cyno

EC50 CD8+OX40+, donor 1149M52, 24 hr (human ICOS on cells) [µg/mL]	EC50 IFN-γ, donor 1136F50, 48 hr (human ICOS on cells) [µg/mL]	Kd (Cyno ICOS-Fc) [nM]	koff (Cyno ICOS-Fc) [s⁻¹]	kon (Cyno ICOS-Fc) [M⁻¹ s⁻¹]	Kd (cynomolgus ICOS) [nM]	Binder
1.5	1.5	0.949	0.000371	391000		H2L5 hIgG4PE (antibody, also called H2L5 IgG4PE; copies: 2 + 2) heavy: not shown light: EIVLTQSPATLSLSPGERATLSCSASSSVSYMHWYQQKPGQAPRLLIYDTSKLASGIPARFSGSGSGTDYTLTISSLEPEDFAVYYCFQGSGYPYTFGQGTKLEIKRTVAAPSVFIFPPSDEQLKSGTASVVCLLNNFYPREAKVQWKVDNALQSGNSQESVTEQDSKDSTYSLSSTLTLSKADYEKHKVYACEVTHQGLSSPVTKSFNRGEC
					23	ICOS mAb clone 88.2 (antibody, V domains shown, murine anti-human ICOS mAb) VH: QVQLQQPGAELVRPGASVKLSCKASGYSFTSYWINWVKQRPGQGLEWIGNIYPSDSYTNYNQMFKDKATLTVDKSSNTAYMQLTSPTSEDSAVYYCTRWNLSYYFDNNYYLDYWGQGTTLTVSS VL: QAVVTQESALTTSPGETVTLTCRSSTGAVTTSNYANWVQEKPDHLFTGLIGGTNNRAPGVPARFSGSLIGDKAALTITGAQTEDEAIYFCALWYNNHLVFGGGTKLTVL
					4.46	ICOS mAb clone 422.2 (antibody, V domains shown, murine hybridoma mAb) VH: QVQLQQSGPELVRPGESVKISCMGSGYTFTDYAMHWVKQSHAKSLEWIGLISIYSDHTNYNQKFQGKATMTVDKSSSTAYMELARLTSEDSAIYYCGRNNYGNYGWYFDVWGAGTTVTVSS VL: ENVLTQSPAIMSASPGEKVTMTCSASSSVSYMHWYQQKSITSPKLWIYDTSKLASGVPGRFSGSGSGNSYSLTISSMEAEDVATYYCFQGSGYPYTFGGGTKLEIKR
